{"source": "patent US20100297683A1", "about": "(QUEEN MARY AND WESTFIELD COLLEGE, published 2010)", "molecules": {"B1": {"name": "Ala-Ala-Pro-Val-Ala-Ala-Lys-NH2 (AAPVAAK) peptide cross-linker in acrylamide hydrogel film (peptide)", "peptide": "AAPVAAK-NH2", "modifications": "not fully specified (N-terminus); printed as Ala-Ala-Pro-Val-Ala-Ala-Lys-NH2; also: both ends capped with acryloyl group, copolymerised with acrylamide into hydrogel film"}, "B2": {"name": "Human Neutrophil Elastase (protein)", "chain": "IVGGRRARPHAWPFMVSLQLRGGHFCGATLIAPNFVMSAAHCVANVNVRAVRVVLGAHNLSRREPTRQVFAVQRIFENGYDPVNLLNDIVILQLNGSATINANVQVAQLPAQGRRLGNGVQCLAMGWGLLGRNRGIASVLQELNVTVVTSLCRRSNVCTLVRGRQAGVCFGDSGSPLVCNGLIHGIASFVRGGCASGLYPDAFAPVAQFVNWIDSIIQ"}}, "key": {"[1]": {"tested_on": "T1, AAPVAAK cross-linked dextran hydrogel", "T1 sequence": "AAPVAAK"}, "[2]": {"tested_on": "T2, AAPFFK cross-linked dextran hydrogel", "T2 sequence": "AAPFFK"}, "BSA": {"target": "T3, BSA (UniProt P02769 25-607)", "T3 construct": "Control protein added instead of HNE", "T3 sequence (P02769 25-607 limits assumed)": "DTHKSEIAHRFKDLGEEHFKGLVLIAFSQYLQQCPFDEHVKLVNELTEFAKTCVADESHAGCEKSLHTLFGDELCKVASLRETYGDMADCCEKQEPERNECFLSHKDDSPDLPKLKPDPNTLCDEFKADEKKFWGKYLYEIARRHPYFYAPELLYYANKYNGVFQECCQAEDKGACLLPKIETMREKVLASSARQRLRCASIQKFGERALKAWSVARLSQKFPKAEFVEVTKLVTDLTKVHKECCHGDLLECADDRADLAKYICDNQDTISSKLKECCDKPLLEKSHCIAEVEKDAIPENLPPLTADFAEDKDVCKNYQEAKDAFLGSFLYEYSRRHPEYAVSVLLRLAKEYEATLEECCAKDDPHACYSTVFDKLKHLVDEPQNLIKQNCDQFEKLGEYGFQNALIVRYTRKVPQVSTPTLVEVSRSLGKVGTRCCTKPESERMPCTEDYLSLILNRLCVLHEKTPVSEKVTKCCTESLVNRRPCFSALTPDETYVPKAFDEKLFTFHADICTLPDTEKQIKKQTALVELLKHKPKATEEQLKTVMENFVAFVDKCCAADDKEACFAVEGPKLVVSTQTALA", "assay": "QCM admittance (mass, delta XL) on peptide hydrogel film"}, "[3]": {"target": "T4, AAPVAAK cross-linked dextran hydrogel (not fully specified)", "T4 chain": "AAPVAAK"}, "[4]": {"target": "T5, AAPFFK cross-linked dextran hydrogel", "T5 chain": "AAPFFK"}, "[5]": {"target": "T6, Ala-Ala-Pro-Val-Ala-Ala-Lys-NH2 (AAPVAAK) peptide cross-linker in acrylamide hydrogel film (not fully specified)", "T6 chain": "AAPVAAK"}}, "note": "Ends that are not written are not given here.", "data": [{"molecule": "cathepsin G", "values": [{"measurement": "degradation of hydrogel film monitored by QCM, 100 mU cathepsin G", "setting": "[1]", "result": "slow degradation was observed, indicating some minor cross-sensitivity"}, {"measurement": "degradation of hydrogel film monitored by QCM resonant frequency, 100 mU/ml cathepsin G", "setting": "[2]", "result": "Cathepsin G caused the films to degrade resulting in an increase in resonant frequency"}]}, {"molecule": "B1", "values": [{"measurement": "binding result", "setting": "BSA", "result": "no binding"}]}, {"molecule": "B2", "values": [{"measurement": "degradation of hydrogel film monitored by QCM resonance frequency (25% cross-linked film)", "setting": "[3]", "result": "After 10 min of enzyme exposure, the film was completely degraded"}, {"measurement": "degradation of hydrogel film monitored by QCM resonance frequency (50% cross-linked, reduced film)", "setting": "[3]", "result": "the rate of degradation increased when the HNE concentration was increased"}, {"measurement": "degradation of hydrogel film monitored by QCM, 10 U/ml HNE", "setting": "[4]", "result": "There was no noticeable degradation of the hydrogel when HNE was introduced"}, {"measurement": "change of QCM parameter delta XL (mass of the hydrogel film) after addition of HNE", "setting": "[5]", "result": "The gradual decrease in mass was due to the breakage of peptide bonds and the subsequent dissolution of the film resulting in mass loss from the surface of the crystal"}, {"measurement": "change of QCM resistive component delta R after addition of HNE", "setting": "[5]", "result": "The gradual decrease was caused by the cleavage of peptide bonds and subsequent dissolution of the hydrogel by the action of the enzyme human neutrophil elastase"}]}]}
